Here are results for one protein from paper PMC5961147 (Nucleic Acids Research, 2018).

The data set deals with the molecule itself. Briefly: cross-linking.

B1: Flag-SART3 (natural protein, UniProt Q15020 1-963, looked up)
chain: MATAAETSASEPEAESKAGPKADGEEDEVKAARTRRKVLSRAVAAATYKTMGPAWDQQEEGVSESDGDEYAMASSAESSPGEYEWEYDEEEEKNQLEIERLEEQLSINVYDYNCHVDLIRLLRLEGELTKVRMARQKMSEIFPLTEELWLEWLHDEISMAQDGLDREHVYDLFEKAVKDYICPNIWLEYGQYSVGGIGQKGGLEKVRSVFERALSSVGLHMTKGLALWEAYREFESAIVEAARLEKVHSLFRRQLAIPLYDMEATFAEYEEWSEDPIPESVIQNYNKALQQLEKYKPYEEALLQAEAPRLAEYQAYIDFEMKIGDPARIQLIFERALVENCLVPDLWIRYSQYLDRQLKVKDLVLSVHNRAIRNCPWTVALWSRYLLAMERHGVDHQVISVTFEKALNAGFIQATDYVEIWQAYLDYLRRRVDFKQDSSKELEELRAAFTRALEYLKQEVEERFNESGDPSCVIMQNWARIEARLCNNMQKARELWDSIMTRGNAKYANMWLEYYNLERAHGDTQHCRKALHRAVQCTSDYPEHVCEVLLTMERTEGSLEDWDIAVQKTETRLARVNEQRMKAAEKEAALVQQEEEKAEQRKRARAEKKALKKKKKIRGPEKRGADEDDEKEWGDDEEEQPSKRRRVENSIPAAGETQNVEVAAGPAGKCAAVDVEPPSKQKEKAASLKRDMPKVLHDSSKDSITVFVSNLPYSMQEPDTKLRPLFEACGEVVQIRPIFSNRGDFRGYCYVEFKEEKSALQALEMDRKSVEGRPMFVSPCVDKSKNPDFKVFRYSTSLEKHKLFISGLPFSCTKEELEEICKAHGTVKDLRLVTNRAGKPKGLAYVEYENESQASQAVMKMDGMTIKENIIKVAISNPPQRKVPEKPETRKAPGGPMLLPQTYGARGKGRTQLSLLPRALQRPSAAAPQAENGPAAAPAVAAPAATEAPKMSNADFAKLFLRK
For B1, the stoichiometry N (usually a count of units in the complex or per binding partner) turned out to be 2.
